Measurements taken from publication PMC3578862, “Single Residue Mutation in Active Site of Serine Acetyltransferase Isoform 3 from Entamoeba histolytica Assists in Partial Regaining of Feedback Inhibition by Cysteine” (PLoS ONE, 2013).

Key:
[1] = biological target: T1, Serine acetyltransferase isoform 1 (EhSAT1) (Entamoeba histolytica, UniProt Q9U8X2); assay: SAT activity assay, acetyl-CoA thioester cleavage at […] nm, […] serine; assay type: biochemical
T1 construct: gene EhSAT
T1 sequence (Q9U8X2 1-305): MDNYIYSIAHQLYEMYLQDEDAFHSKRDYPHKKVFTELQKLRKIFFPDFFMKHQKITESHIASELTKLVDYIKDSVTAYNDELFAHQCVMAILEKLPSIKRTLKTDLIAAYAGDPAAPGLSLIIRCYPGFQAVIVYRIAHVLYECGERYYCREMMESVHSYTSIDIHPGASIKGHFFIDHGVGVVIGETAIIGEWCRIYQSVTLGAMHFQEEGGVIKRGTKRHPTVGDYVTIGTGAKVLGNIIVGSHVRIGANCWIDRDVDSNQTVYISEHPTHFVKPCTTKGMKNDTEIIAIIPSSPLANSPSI

purified protein = substrate: N[C@@H](CO)C(=O)O; assay: purified protein; assay type: biochemical, Entamoeba histolytica; details: acetyl coenzyme A active site

`N[C@@H](CS)C(=O)O` [L-cysteine] was tested. Which IC50 [1] did it give?
The IC50 was 9.59 µM.

B1: Serine acetyltransferase isoform 1 (EhSAT1) (Entamoeba histolytica) (protein)
chain: MDNYIYSIAHQLYEMYLQDEDAFHSKRDYPHKKVFTELQKLRKIFFPDFFMKHQKITESHIASELTKLVDYIKDSVTAYNDELFAHQCVMAILEKLPSIKRTLKTDLIAAYAGDPAAPGLSLIIRCYPGFQAVIVYRIAHVLYECGERYYCREMMESVHSYTSIDIHPGASIKGHFFIDHGVGVVIGETAIIGEWCRIYQSVTLGAMHFQEEGGVIKRGTKRHPTVGDYVTIGTGAKVLGNIIVGSHVRIGANCWIDRDVDSNQTVYISEHPTHFVKPCTTKGMKNDTEIIAIIPSSPLANSPSI
How did the Km (purified protein; Asp114, Asp179, His180, His208, Arg222, His223) turn out when B1 was run?
Its Km is 43.5 µM.

B2: Serine acetyltransferase isoform 3 (EhSAT3) (Entamoeba histolytica) (protein)
chain: MSSLLQQTSQLLVQSYQSDNIAFKSTKQFPEKKSFLELELIQKILFPDFFTRRDKRTFNNVLERLSLLVYHIQNSIEAYYNQQLAEKCITALLSQFVTIRELVKQDIIAAYTGDPAASSLAMIIRSYPGIHVMMIQRVAHILYMNGDIEYSRELMENIHSVTGIDIHPGTSIGNHFFIDHGVGVVIGETAVIGNWCRVYQSVTLGAMSFKEDNGIVIKGNKRHPTIGDFVVIGAGAKVLGNITIGSNVKIGANCWITQNIDQDQIVFISEHPSQITKSSTKQSSKDDKIILQSLTENKISEEQENLSWVNSPELLCTYTSEESTPINLDCFVSCQQ
For B2, which Km (purified protein) is on record?
The Km was 52.0 µM.
